Consider three molecules from patent publication US20040202665A1, “Compositions and methods for therapeutic treatment” (priority 2002, published 2004).

Test [1] concerns MOLT-4 (T leukemia) cells. The experiment in a line: Survival of MOLT-4 tumor-bearing mice after doxorubicin and Y1. The test is classed as in vivo. Conditions: MOLT-4 tumor-bearing SCID mice; for survival of tumor-bearing mice (FIG. 1): 2 mg Dox/kg i.v. 1x/wk and/or 0.1 mg Y1 scFv/mouse i.v. 3x/wk, relative to control. On the procedure:
The present example examines the interaction between chemotherapy treatment and Y1 in the MOLT-4 tumor-bearing mice.
Initially, SCID mice (Jackson) were pretreated with 100 mg/kg CTX (Cytoxan-cyclophosphamid for injection, Mead Johnson). Five days after CTX injection, MOLT-4 (T leukemia) cells were inoculated intravenously (i.v.) through the tail vein with 2×10^7 cells. Mice were randomly divided into 5 treatment groups (13 per group), and they were treated, beginning 5 days after cell inoculation, as indicated in the table below. Tumor-bearing mice were treated for two weeks with sub-optimal dose of doxorubicin (Dox), in combination with Y1 given either concomitantly or after the Dox course of treatment. The response to the therapies was monitored as survival. As described above, the experimental groups were as follows: […]

A further test relates to leukemic cells. The experiment in a line: Binding to leukemic cells.
For test [2], the system named is platelets. The experiment in a line: Binding to platelets.
The subject of test [3] is platelets. The experiment in a line: Platelet aggregation. The test is classed as cell-based.
For test [4], the system named is primary leukemia cells derived from either AML or multiple myeloma (MM) patients. The experiment in a line: Affinity of Y1 to primary leukemia cells. The test is classed as binding.

In the case of `COc1cccc2c1C(=O)c1c(O)c3c(c(O)c1C2=O)C[C@@](O)(C(=O)CO)C[C@@H]3O[C@H]1C[C@H](N)[C@H](O)[C@H](C)O1` [Dox, doxorubicin], the “survival of tumor-bearing mice (FIG. 1)” value in test [1] is reported as “negative effect”. Also, the “mean survival time (MST)” value in test [1] (sub-optimal dose 2 mg Dox/kg i.v., 2 doses, 1x/wk, beginning day 5 post inoculation, control 39.08±0.8 days) was 33.5 ± 1.68 days.

B1: L32: scFv antibody fragment of SEQ ID NO:3, screened against a leukemia cell (protein, listed as Homo sapiens)
scFv: MKYLLPTAAAGLLLLAAQPAMAEVQLVESGGGVVRPGGSLRLSCAASGFTFDLNPKVKHMWVRQAPGKGLEWVSGINWNGGSTGYADSVKGRFTISRDNAKNSLYLQMNSERAEDTAVYYCARMRAPVIWGQGTLVTVSRGGGGSGGGGSGGGGSSELTQDPAVSVALGQTVRITCQGDSLRSYYASWYQQKPGQAPVLVIYGKNNRPSGIPDRFSGSSSGNTASLTITGAQAEDEADYYCNSRDSSGNHVVFGGGTKLTVLGAAAEQKLISEEDLNGAA
Regarding B1, the “affinity of binding to leukemic cells relative to Y1” value in the test with leukemic cells is given as “approximately five times greater affinity than Y1”. Moreover, the binding to platelets entry in the test on platelets [2] is “does not bind platelets”. In addition, in the test on platelets [3], the “effect on platelet aggregation” value is on record as “does not affect platelet aggregation”.

B2: Y1: human scFv antibody fragment of SEQ ID NO: 1, selected from a phage library on fixed human platelets (protein, listed as Homo sapiens)
scFv: MKYLLPTAAAGLLLLAAQPAMAEVQLVESGGGVVRPGGSLRLSCAASGFSFDDYGMSWVRQAPGKGLEWVSGINWNGGSTGYADSVKGRFTISRDNAKNSLYLQMNSLRAEDTAVYYCARMRAPVIWGQGTLVTVSRGGGGSGGGGSGGGGSSELTQDPAVSVALGQTVRITCQGDSLRSYYASWYQQKPGQAPVLVIYGKNNRPSGIPDRFSGSSSGNTASLTITGAQAEDEADYYCNSRDSSGNHVVFGGGTKLTVLGAAAEQKLISEEDLNGAA
For B2, in test [1], the “survival of tumor-bearing mice (FIG. 1)” value was “dramatic effect”. Further, the “affinity to primary leukemia cells relative to glycocalicin, fibrinogen-gamma prime, complement compound 4 and PSGL-1 epitopes” value in test [4] was “several magnitudes higher”.
